Drawing on PMC4182809, this text covers stoichiometry N for 1 substance.

The test concerns the target plastidic glutamine synthetase (GS2), spinach, 420 kDa stromal holoenzyme (spinach (Spinacia oleracea), endogenous in leaf chloroplasts). Nature of the test: native gel or EMSA; BN-PAGE (4-16% Bis-Tris gradient gel, 4°C) of stroma and thylakoid proteins of chloroplasts, western blot, with 2D SDS-PAGE; extraction in 20 mM Hepes-KOH pH 7.5, or potassium phosphate pH 6 or pH 8 with or without 0.1 M NaCl, 10 mM DTT or 10 mM ascorbic acid. (A gel shift assay detects complexes by their altered migration in electrophoresis.)

As for “plastidic glutamine synthetase (GS2), spinach, 420 kDa stromal holoenzyme”, the stoichiometry N (in general, the number of molecules, sites or subunits per partner or assembly) came out at 10.
